Source: patent US20050026219

Columns and labels:
[1] = tested on: T1, Raytide EL (protein-tyrosine-kinase substrate, MW 2476 Dalton, Messrs. Calbiochem)
T1 sequence: KKKGPWLEEEEEAYGWLDF

[2] = tested on: oligopeptide Ac-Ile-Tyr-Gly-Glu-Phe-NH2 "M-2165" (Messrs. Bachem, MW 668.8)

Substance | phosphorylation of the substrate, detected by RIfS through the fall of free anti-phosphotyrosine antibody [1] | phosphorylation of the substrate, detected by RIfS (AMD sensor) through the fall of free anti-phosphotyrosine antibody [2] | phosphorylation of the substrate, detected by RIfS (diamino-PEG 2000 sensor) through the fall of free anti-phosphotyrosine antibody [2]
Epidermal Growth Factor Receptor Kinase (EGF-RK) isolated from human A 431 carcinoma cells (Messrs. Sigma) | The phosphorylation with the alternative substrate (SEQ ID NO.:3) Raytide™ EL is clearly detectable. | – | –
p60c-src-kinase isolated from human cells (Messrs. Calbiochem) | – | The phosphorylation is very clearly detectable. | The phosphorylation is very clearly detectable.
